Data on six molecules can be found in article PMC7367873, “Dissecting the sequence determinants for dephosphorylation by the catalytic subunits of phosphatases PP1 and PP2A” (Nature Communications, 2020).

Sequences and labels used below:
B1: SRSF7 (protein, UniProt Q16629 1-238, looked up)
Serine/arginine-rich splicing …: MSRYGRYGGETKVYVGNLGTGAGKGELERAFSYYGPLRTVWIARNPPGFAFVEFEDPRDAEDAVRGLDGKVICGSRVRVELSTGMPRRSRFDRPPARRPFDPNDRCYECGEKGHYAYDCHRYSRRRRSRSRSRSHSRSRGRRYSRSRSRSRGRRSRSASPRRSRSISLRRSRSASLRRSRSGSIKGSRYFQSPSRSRSRSRSISRPRSSRSKSRSPSPKRSRSPSGSPRRSASPERMD
B2: PFKFB2 (protein, UniProt O60825 2-505, looked up)
6-phosphofructo-2-kinase/fruct …: SGASSSEQNNNSYETKTPNLRMSEKKCSWASYMTNSPTLIVMIGLPARGKTYVSKKLTRYLNWIGVPTKVFNLGVYRREAVKSYKSYDFFRHDNEEAMKIRKQCALVALEDVKAYLTEENGQIAVFDATNTTRERRDMILNFAEQNSFKVFFVESVCDDPDVIAANILEVKVSSPDYPERNRENVMEDFLKRIECYKVTYRPLDPDNYDKDLSFIKVINVGQRFLVNRVQDYIQSKIVYYLMNIHVQPRTIYLCRHGESEFNLLGKIGGDSGLSVRGKQFAQALRKFLEEQEITDLKVWTSQLKRTIQTAESLGVPYEQWKILNEIDAGVCEEMTYAEIEKRYPEEFALRDQEKYLYRYPGGESYQDLVQRLEPVIMELERQGNVLVISHQAVMRCLLAYFLDKGADELPYLRCPLHTIFKLTPVAYGCKVETIKLNVEAVNTHRDKPTNNFPKNQTPVRMRRNSFTPLSSSNTIRRPRNYSVGSRPLKPLSPLRAQDMQEGAD
B3: PPFIBP1 (protein, UniProt Q86W92 1-1011, looked up)
Liprin-beta-1: MMSDASDMLAAALEQMDGIIAGSKALEYSNGIFDCQSPTSPFMGSLRALHLVEDLRGLLEMMETDEKEGLRCQIPDSTAETLVEWLQSQMTNGHLPGNGDVYQERLARLENDKESLVLQVSVLTDQVEAQGEKIRDLEFCLEEHREKVNATEEMLQQELLSRTSLETQKLDLMAEISNLKLKLTAVEKDRLDYEDKFRDTEGLIQEINDLRLKVSEMDSERLQYEKKLKSTKSLMAKLSSMKIKVGQMQYEKQRMEQKWESLKDELASLKEQLEEKESEVKRLQEKLVCKMKGEGVEIVDRDIEVQKMKKAVESLMAANEEKDRKIEDLRQCLNRYKKMQDTVVLAQGKDGEYEELLNSSSISSLLDAQGFSDLEKSPSPTPVMGSPSCDPFNTSVPEEFHTTILQVSIPSLLPATVSMETSEKSKLTPKPETSFEENDGNIILGATVDTQLCDKLLTSSLQKSSSLGNLKKETSDGEKETIQKTSEDRAPAESRPFGTLPPRPPGQDTSMDDNPFGTRKVRSSFGRGFFKIKSNKRTASAPNLAETEKETAEHLDLAGASSRPKDSQRNSPFQIPPPSPDSKKKSRGIMKLFGKLRRSQSTTFNPDDMSEPEFKRGGTRATAGPRLGWSRDLGQSNSDLDMPFAKWTKEQVCNWLMEQGLGSYLNSGKHWIASGQTLLQASQQDLEKELGIKHSLHRKKLQLALQALGSEEETNHGKLDFNWVTRWLDDIGLPQYKTQFDEGRVDGRMLHYMTVDDLLSLKVVSVLHHLSIKRAIQVLRINNFEPNCLRRRPSDENTIAPSEVQKWTNHRVMEWLRSVDLAEYAPNLRGSGVHGGLMVLEPRFNVETMAQLLNIPPNKTLLRRHLATHFNLLIGAEAQHQKRDAMELPDYVLLTATAKVKPKKLAFSNFGNLRKKKQEDGEEYVCPMELGQASGSASKKGFKPGLDMRLYEEDDLDRLEQMEDSEGTVRQIGAFSEGINNLTHMLKEDDMFKDFAARSPSASITDEDSNV
B4: FAM122B (protein, UniProt Q7Z309 2-247, looked up)
PABIR family member 2: AQEKMELDLEPDTSYGGTLRRSSSAPLIHGLSDLSQVFQPYTLRTRRNSTTIMSRHSLEEGLDMVNRETAHEREMQTAMQISQSWDESLSLSDSDFDKPEKLYSPKRIDFTPVSPAPSPTRGFGKMFVSSSGLPPSPVPSPRRFSRRSQSPVKCIRPSVLGPLKRKGEMETESQPKRLFQGTTNMLSPDAAQLSDLSSCSDILDGSSSSSGLSSDPLAKGSATAESPVACSNSCSSFILMDDLSPK
B5: PI4KB (protein, UniProt Q9UBF8 2-816, looked up)
Phosphatidylinositol 4-kinase …: GDTVVEPAPLKPTSEPTSGPPGNNGGSLLSVITEGVGELSVIDPEVAQKACQEVLEKVKLLHGGVAVSSRGTPLELVNGDGVDSEIRCLDDPPAQIREEEDEMGAAVASGTAKGARRRRQNNSAKQSWLLRLFESKLFDISMAISYLYNSKEPGVQAYIGNRLFCFRNEDVDFYLPQLLNMYIHMDEDVGDAIKPYIVHRCRQSINFSLQCALLLGAYSSDMHISTQRHSRGTKLRKLILSDELKPAHRKRELPSLSPAPDTGLSPSKRTHQRSKSDATASISLSSNLKRTASNPKVENEDEELSSSTESIDNSFSSPVRLAPEREFIKSLMAIGKRLATLPTKEQKTQRLISELSLLNHKLPARVWLPTAGFDHHVVRVPHTQAVVLNSKDKAPYLIYVEVLECENFDTTSVPARIPENRIRSTRSVENLPECGITHEQRAGSFSTVPNYDNDDEAWSVDDIGELQVELPEVHTNSCDNISQFSVDSITSQESKEPVFIAAGDIRRRLSEQLAHTPTAFKRDPEDPSAVALKEPWQEKVRRIREGSPYGHLPNWRLLSVIVKCGDDLRQELLAFQVLKQLQSIWEQERVPLWIKPYKILVISADSGMIEPVVNAVSIHQVKKQSQLSLLDYFLQEHGSYTTEAFLSAQRNFVQSCAGYCLVCYLLQVKDRHNGNILLDAEGHIIHIDFGFILSSSPRNLGFETSAFKLTTEFVDVMGGLDGDMFNYYKMLMLQGLIAARKHMDKVVQIVEIMQQGSQLPCFHGSSTIRNLKERFHMSMTEEQLQLLVEQMVDGSMRSITTKLYDGFQYLTNGIM
B6: NEDD4L (protein, UniProt Q96PU5 2-975, looked up)
E3 ubiquitin-protein ligase …: ATGLGEPVYGLSEDEGESRILRVKVVSGIDLAKKDIFGASDPYVKLSLYVADENRELALVQTKTIKKTLNPKWNEEFYFRVNPSNHRLLFEVFDENRLTRDDFLGQVDVPLSHLPTEDPTMERPYTFKDFLLRPRSHKSRVKGFLRLKMAYMPKNGGQDEENSDQRDDMEHGWEVVDSNDSASQHQEELPPPPLPPGWEEKVDNLGRTYYVNHNNRTTQWHRPSLMDVSSESDNNIRQINQEAAHRRFRSRRHISEDLEPEPSEGGDVPEPWETISEEVNIAGDSLGLALPPPPASPGSRTSPQELSEELSRRLQITPDSNGEQFSSLIQREPSSRLRSCSVTDAVAEQGHLPPPSAPAGRARSSTVTGGEEPTPSVAYVHTTPGLPSGWEERKDAKGRTYYVNHNNRTTTWTRPIMQLAEDGASGSATNSNNHLIEPQIRRPRSLSSPTVTLSAPLEGAKDSPVRRAVKDTLSNPQSPQPSPYNSPKPQHKVTQSFLPPGWEMRIAPNGRPFFIDHNTKTTTWEDPRLKFPVHMRSKTSLNPNDLGPLPPGWEERIHLDGRTFYIDHNSKITQWEDPRLQNPAITGPAVPYSREFKQKYDYFRKKLKKPADIPNRFEMKLHRNNIFEESYRRIMSVKRPDVLKARLWIEFESEKGLDYGGVAREWFFLLSKEMFNPYYGLFEYSATDNYTLQINPNSGLCNEDHLSYFTFIGRVAGLAVFHGKLLDGFFIRPFYKMMLGKQITLNDMESVDSEYYNSLKWILENDPTELDLMFCIDEENFGQTYQVDLKPNGSEIMVTNENKREYIDLVIQWRFVNRVQKQMNAFLEGFTELLPIDLIKIFDENELELLMCGLGDVDVNDWRQHSIYKNGYCPNHPVIQWFWKAVLLMDAEKRIRLLQFVTGTSRVPMNGFAELYGSNGPQLFTIEQWGSPEKLPRAHTCFNRLDLPPYETFEDLREKLLMAVENAQGFEGVD

The test system of one test is GFP-14-3-3β and its binding proteins. The experiment in a line: GFP-14-3-3β co-IP with LC-MS/MS label-free quantification, untreated versus PP1c-treated. Details: species or system human. The following applies: pairwise comparison PP1 vs untreated, student's t-test; 3 replicates each; LC-MS/MS label-free quantification.
As for B1, the “Difference (log2), PP1 vs untreated” value was -6.84 log2.

B2: the “Difference (log2), PP1 vs untreated” value is listed as -5.844 log2.

B3: the “Difference (log2), PP1 vs untreated” value is -5.566 log2.

Regarding B4, the “Difference (log2), PP1 vs untreated” value was -5.572 log2.

Turning to B5, the “Difference (log2), PP1 vs untreated” value is listed as -5.63 log2.

Consider B6, for which the “Difference (log2), PP1 vs untreated” value is reported as -5.048 log2.

A further test concerns GFP-14-3-3β. The experiment in a line: GFP-14-3-3β co-IP with LC-MS/MS, untreated GFP-14-3-3β versus GFP control (14-3-3 interactome). Format: binding, human. The following applies: pairwise comparison untreated GFP-14-3-3β vs GFP, student's t-test; 3 replicates each; LC-MS/MS label-free quantification.
In the case of B1, the “Difference (log2), untreated vs GFP” value is on record as 7.205 log2.

With B2, the “Difference (log2), untreated vs GFP” value is recorded as 3.999 log2.

With B3, the “Difference (log2), untreated vs GFP” value is on record as 6.964 log2.

As to B4, the “Difference (log2), untreated vs GFP” value is 4.879 log2.

As to B5, the “Difference (log2), untreated vs GFP” value is reported as 4.864 log2.

Consider B6, for which the “Difference (log2), untreated vs GFP” value is reported as 4.407 log2.
